Data taken from US20050048071A1 (RUSH UNIVERSITY MEDICAL CENTER, published 2005).

Columns and labels:
[1] = biological target: HLA-A2.1 MHC class I molecules on T2 cells (human); test: T2 cells pulsed with peptide, anti-HLA-A2.1 flow cytometry; Brefeldin A treatment: Overnight
Description: (§1) T2 cells were washed and resuspended in serum-free AIM-VTM (Gibco-Life Technologies, Rockville, Md.) at a final concentration of 1×10⁶ cells/ml and transferred into a 24-well tissue culture plate. […] After incubation, cells were washed once with PBS containing 3% FCS, and stained with mouse anti-HLA-A2.1 monoclonal antibody for 15 minutes at 4° C. After washing, the cells were incubated with goat anti-mouse IgG(F(ab′)2)-FITC for 15 minutes at 4° C. The cells were washed once, and fluorescence was measured on a FACSort™ flow cytometer (Becton Dickson, San Jose, Calif.). The fluorescence index was calculated as follows: (mean channel fluorescence of sample−mean channel fluorescence of unstained control cells)/mean channel fluorescence of unstained control cells.

[2] = biological target: HLA-A2.1 MHC class I molecules on T2 cells (human); test: T2 cells pulsed with peptide, anti-HLA-A2.1 flow cytometry; Brefeldin A treatment: 4 hr
Description: as §1

[3] = biological target: HLA-A2.1 MHC class I molecules on T2 cells (human); test: T2 cells pulsed with peptide, anti-HLA-A2.1 flow cytometry; Brefeldin A treatment: 0 hr
Description: as §1

[4] = biological target: HLA-A2.1 MHC class I molecules on T2 cells (human); test: T2 cells pulsed with peptide, anti-HLA-A2.1 flow cytometry; Brefeldin A treatment: 6 hr
Description: as §1

[5] = biological target: HLA-A2.1 MHC class I molecules on T2 cells (human); test: T2 cells pulsed with peptide, anti-HLA-A2.1 flow cytometry; Brefeldin A treatment: 2 hr
Description: as §1

[6] = biological target: HLA-A2.1 MHC class I molecules on T2 cells (human); test: T2 cells pulsed with peptide, anti-HLA-A2.1 flow cytometry; Brefeldin A treatment: None
Description: as §1

RLLFFLLFL (Synthetic nonamer) [CD19 peptide RLLFFLLFL (SEQ ID NO: 1)]
binding score (HLA-A2.1 fluorescence on T2 cells) [1]: 248 | binding score (HLA-A2.1 fluorescence on T2 cells) [2]: 174 | binding score (HLA-A2.1 fluorescence on T2 cells) [3]: 167 | binding score (HLA-A2.1 fluorescence on T2 cells) [4]: 152 | binding score (HLA-A2.1 fluorescence on T2 cells) [5]: 202

TLAYLIFCL (Synthetic nonamer) [CD19 peptide TLAYLIFCL (SEQ ID NO: 2)]
binding score (HLA-A2.1 fluorescence on T2 cells) [1]: 312 | binding score (HLA-A2.1 fluorescence on T2 cells) [6]: 363 | binding score (HLA-A2.1 fluorescence on T2 cells) [2]: 513 | binding score (HLA-A2.1 fluorescence on T2 cells) [3]: 530 | binding score (HLA-A2.1 fluorescence on T2 cells) [4]: 387 | binding score (HLA-A2.1 fluorescence on T2 cells) [5]: 608

LLFLTPMEV (Synthetic nonamer) [CD19 peptide LLFLTPMEV (SEQ ID NO: 3)]
binding score (HLA-A2.1 fluorescence on T2 cells) [1]: 453 | binding score (HLA-A2.1 fluorescence on T2 cells) [6]: 556 | binding score (HLA-A2.1 fluorescence on T2 cells) [2]: 880 | binding score (HLA-A2.1 fluorescence on T2 cells) [3]: 770 | binding score (HLA-A2.1 fluorescence on T2 cells) [4]: 573 | binding score (HLA-A2.1 fluorescence on T2 cells) [5]: 924

KLMSPKLYV (Synthetic nonamer) [CD19 peptide KLMSPKLYV (SEQ ID NO: 4)]
binding score (HLA-A2.1 fluorescence on T2 cells) [1]: 540 | binding score (HLA-A2.1 fluorescence on T2 cells) [2]: 796 | binding score (HLA-A2.1 fluorescence on T2 cells) [3]: 683 | binding score (HLA-A2.1 fluorescence on T2 cells) [4]: 642

LLFFLLFLV [CD19 peptide LLFFLLFLV (SEQ ID NO: 5)]
binding score (HLA-A2.1 fluorescence on T2 cells) [1]: 200 | binding score (HLA-A2.1 fluorescence on T2 cells) [6]: 164 | binding score (HLA-A2.1 fluorescence on T2 cells) [2]: 163 | binding score (HLA-A2.1 fluorescence on T2 cells) [3]: 200 | binding score (HLA-A2.1 fluorescence on T2 cells) [4]: 143 | binding score (HLA-A2.1 fluorescence on T2 cells) [5]: 202

SLFLGILSV (Synthetic nonamer) [CD20 peptide SLFLGILSV (SEQ ID NO: 6)]
binding score (HLA-A2.1 fluorescence on T2 cells) [1]: 410 | binding score (HLA-A2.1 fluorescence on T2 cells) [6]: 637 | binding score (HLA-A2.1 fluorescence on T2 cells) [2]: 762 | binding score (HLA-A2.1 fluorescence on T2 cells) [3]: 672 | binding score (HLA-A2.1 fluorescence on T2 cells) [4]: 770 | binding score (HLA-A2.1 fluorescence on T2 cells) [5]: 703

AISGMILSI (Synthetic nonamer) [CD20 peptide AISGMILSI (SEQ ID NO: 7)]
binding score (HLA-A2.1 fluorescence on T2 cells) [1]: 232 | binding score (HLA-A2.1 fluorescence on T2 cells) [6]: 162 | binding score (HLA-A2.1 fluorescence on T2 cells) [2]: 165 | binding score (HLA-A2.1 fluorescence on T2 cells) [3]: 220 | binding score (HLA-A2.1 fluorescence on T2 cells) [4]: 144 | binding score (HLA-A2.1 fluorescence on T2 cells) [5]: 256

FIRAHTPYI (Synthetic nonamer) [CD20 peptide FIRAHTPYI (SEQ ID NO: 8)]
binding score (HLA-A2.1 fluorescence on T2 cells) [1]: 250 | binding score (HLA-A2.1 fluorescence on T2 cells) [6]: 167 | binding score (HLA-A2.1 fluorescence on T2 cells) [2]: 192 | binding score (HLA-A2.1 fluorescence on T2 cells) [3]: 232 | binding score (HLA-A2.1 fluorescence on T2 cells) [4]: 154 | binding score (HLA-A2.1 fluorescence on T2 cells) [5]: 215

SLNFIRAHT (Synthetic nonamer) [CD20 peptide SLNFIRAHT (SEQ ID NO: 9)]
binding score (HLA-A2.1 fluorescence on T2 cells) [1]: 195 | binding score (HLA-A2.1 fluorescence on T2 cells) [6]: 172 | binding score (HLA-A2.1 fluorescence on T2 cells) [2]: 180 | binding score (HLA-A2.1 fluorescence on T2 cells) [3]: 212 | binding score (HLA-A2.1 fluorescence on T2 cells) [4]: 128 | binding score (HLA-A2.1 fluorescence on T2 cells) [5]: 200

LKMESLNFI (Synthetic nonamer) [CD20 peptide LKMESLNFI (SEQ ID NO: 10)]
binding score (HLA-A2.1 fluorescence on T2 cells) [1]: 225 | binding score (HLA-A2.1 fluorescence on T2 cells) [6]: 215 | binding score (HLA-A2.1 fluorescence on T2 cells) [2]: 227 | binding score (HLA-A2.1 fluorescence on T2 cells) [3]: 245 | binding score (HLA-A2.1 fluorescence on T2 cells) [4]: 190 | binding score (HLA-A2.1 fluorescence on T2 cells) [5]: 291

SHFLKMESL (Synthetic nonamer) [CD20 peptide SHFLKMESL (SEQ ID NO: 11)]
binding score (HLA-A2.1 fluorescence on T2 cells) [1]: 277 | binding score (HLA-A2.1 fluorescence on T2 cells) [6]: 172 | binding score (HLA-A2.1 fluorescence on T2 cells) [2]: 199 | binding score (HLA-A2.1 fluorescence on T2 cells) [3]: 216 | binding score (HLA-A2.1 fluorescence on T2 cells) [4]: 127 | binding score (HLA-A2.1 fluorescence on T2 cells) [5]: 218
